Assay results: a protein production outcome set (Wang et al. 2014)

Experiment: label from the status in PepcDB records

Sequence	protein production
TWILTADSPSLLGTVDVVTRYLFEQRCYVTEHHSFDDRLAQRFFIRVEFRAGDGFDEASFRAGLAERVAPFGMRTELTAPGYRSQVAIMVSKADHCLNDLLYRQRIGQLPMDVVAVISNHPDLEPLARWHGIPYHHFPLDPNDKPAQEARVWQVLEESGAELVILARYMQVLSPELCRRLDGWAINIHHSLLPGFKGAKPYHQAYQKGVKLVGATAHYINNDLDEGPIIAQGVETVDHAHYPEDLIAKGRDIECLTLARAVGYHIERRVFLNANRTVVL	failed
MKVEEILEKALELVIPDEEEVRKGREAEEELRRRLDELGVEYVFVGSYARNTWLKGSLEIDVFLLFPEEFSKEELRERGLEIGKAVLDSYEIRYAEHPYVHGVVKGVEVDVVPCYKLKEPKNIKSAVDRTPFHHKWLEGRIKGKENEVRLLKGFLKANGIYGAEYKVRGFSGYLCELLIVFYGSFLETVKNARRWTRRTVIDVAKGEVRKGEEFFVVDPVDEKRNVAANLSLDNLARFVHLCREFMEAPSLGFFKPKHPLEIEPERLRKIVEERGTAVFAVKFRKPDIVDDNLYPQLERASRKIFEFLERENFMPLRSAFKASEEFCYLLFECQIKEISRVFRRMGPQFEDERNVKKFLSRNRAFRPFIENGRWWAFEMRKFTTPEEGVRSYASTHWHTLGKNVGESIREYFEIISGEKLFKEPVTAELCEMMGVKD	not failed
FGLETVSENELAHSEEELRIILSESYKSGEINQSEFKYVNKIFEFDDRLAKEIMIPRTEIVSLPHDIKISEMMDIIQIEKYTRYPVEEGDKDNIIGVINIKEVLTACISGEVSVDSTISQFVNPIIHVIESAPIQDLLVKMQKERVHMAILSDEYGGTAGLVTVEDIIEEIVGEIR	not failed
MNEFEDLLNSVSEVNPGDVVTAEVLTVDNGQANVVIEGTGVEGVLTLRELTNDRDADINDFVKAGDTVEVLVLRQVVGKDTDTVTFLVSKKRLEARKAWDKLVGREGEVVTVKGTRAVKGGLSVEFEGLRGFIPASMIDTRFVRNTEKFVGQEFDAKIKEVDAAENRFILSRREVIEEAAKEARAEVFSKISEGAVVTGTVARLTSFGAFIDLGGVDGLVHVTELSHERNVSPKSVVSVGEEVEVKVLSIDEEAGRVSLSLKATTPGPWDGVEQKLAQGDVVEGKVKRLTDFGAFVEVLPGIDGLVHISQISHKRVENPKDVLSVGQEVTVKVLEVNAADERVSLSIKALEERPAQAEGDNKEEKRQSRPRRPKRESRRDYELPETQTGFSMADLFGDIEL	failed
MSLSTMLVAEDLSAVGGISLSSALPVLTAMQYDVAALPTSLLSTHTSGYGTPAVVDLSTWLPQVFAHWTRAQLHFDQALIGYVGSVALCQQITTYLEQQTLSLLVVDPVLGDLGQLYQGFDQDYVAAMRQLIQQADVILPNTTEAALLTGAPYQVTPDLEVILPALQAQLKTGAHAVITDVQRADQIGCAWLDEAGHVQYCGARRLPGHYNGTGDTLAAVIAGLLGRGYPLAPTLARANQWLNMAVAETIAQNRTDDRQGVALGDLLQAILALNEGHHHHHH	not failed
METTHYSIAQHFSSGDFPAVYACFNDIIEWNIIGNQVVKGKADVIDFCNKMLPEMKGAVLTNDNVIQNENQIVIEGKCRYFDAEGKEAFVSYCDIYRFENDTIKTITSYCI	not failed
MRVLHETTQELANWQYYFAIAVFLITYAIIISEKINRAVIALLGAALMVIMGVVDLHNAFTKHIEWGTITLLIGMMILVNITSKSGVFQYVAIKAAKGAQGNPIKILISLSLLTALGSAFLDNVTTVLLVVPVTLSITRILQVNPVPYLLSEIIFSNIGGTATLIGDPPNIMIGSANKHLDFNAFLLNLAPIVIIIIAVTAAILYFMYRKQLIADPVQVKKLMSLDEKQYIKDPVLMKKSLTVLGLTIVGFMTHSIFHVDAAIIALTGATVLMLIGVKEHEIEEVFASVEWVTIFFFAGLFVLVGGLIDIGLIKMLAQKVIGITGGDISYASILILWVSGIASATIDNIPFVATMIPLINDMAVGLGLSPADAQIDVLWWALALGACLGGNGTLIGASANVIVAGIASREGHKFSYMDFLKVGFPIMIVSLIISHIYIYVRYLM	failed
MQMMEQFYPKVSIVIPVYNGSDYMREAIDSALGQTYGNIEVIVVNDGSSDGGLTHEIALSYGGNIRYFAKENGGVASALNFAIRMMDGEYFSWLSHDDIYYPNKIETQIGYLAEHDRNAILYSDFELIDCLSKVIKPVNAGEIPPEQFLYNLITIGHLNGCTLLVPKRCFEETGFFDESLRSTQDYALWFTFAQKYRFEQIRKVLVKYRTHSNQGSYVIPTHSQEVNDLHIWFLEEASERGLLPIPDEGASRFFLEVAGIYKKRGIYRAADYSCSMALRHMRDEGGLALLRELPRVAYLKYYFRKKQFKSYLRELRRSTVRRSLLEHHHHHH	not failed
MAFDGCCPDCKLPGDDCPLIWGACNHAFHLHCILKWVNSQTSQAHCPMCRREWQFKE	failed
DHHAWHRLLDRALSEQHFQLYFQPVVAARDTHLVLHYKVLSRLLDEQGQTIPAGRFLPWLERFGWTSRLDLLMLEQVLRQMASHEDCLALNLSAATLADPHALNRVFEILRQHSDLGPRLTLEIGEEQLPEQAMLEQLTRRLRELGFSLSLQRFGGRFSMIGNLARLGLAYLKIDGSYIRDIDQESDKRLFIEAIQRAAHSIDLPLIAERVETEGELQVIREMGLYGVQGQLFGEPAPWG	not failed
MMKAEELNKGFVNEIIEAGTPVPGEKEVASLKSCYQCGTCTGSCPSGRRTAYRTRKVIRQALLGIDSVLDSDDIWKCTTCYTCYERCPRDVKVTEIIKTIRNLAAKKGNMATPHKMTAVYVLKAGHAVPANDDTAKLRKSIGLAEKAPIAQFSQKDMDEIRTIAKNLKFDELIGFDWKTMGLKQ	failed
MSLELARRLVEILLALALIQQSLEHLRGFRDERILFGARIVLAVLVLAGVAGPWPLVGLAGLSLLILHRFQGPYNGGSDRMGLLILWCLTLSSLAPTPILAELAFGYLGAQLTLSYFISGWVKVVNPDWRSGRALRDVFQFSAYPVAESLRGFAQRPGLLRAMSWGVMGFELAFPLTLLWPPALMVGLVVAGTFHLANACLFGLNRFFWTWLSAYPAILWLQGRVF	failed
MAVDVPGIISPKTAEAASQLTDGIGGRAYLNSNGAILVTKIQLPSSTQVSNGTAYIYSGFSGGTESDIGFQYSDKYNVWKPYMKVGSKGQDQVQYLEGGSQFTNTKGFRPGSTVQLTIYKNLNGNTRATYWGTNNAGYNGRLISEISKTNVGSISKWKALATVATTGSRQSIKSNFSTSFTNITIDNKAITPVIDTQDFAKVTVSGNSVSLSVVKNLEHHHHHH	not failed
TTLASIGKDIIEDADGIAMPHQWLEGNLPVSAKCTVCDKTCGSVLRLQDWRCLWCKAMVHTSCKESLLTKC	not failed
MKLKTFLIVGCLGGLFTLSSCTAPTNVKDYSAYVNPFIGTGGHGHTFPGAVVPHGMIQPSPDTRIDGWDACSGYYYADSTINGFSHTHVSGTGCCDYGDVLLMPTVGKQQYRTTDPQSQRLAYASSFSHKNEIAEPGYYSVFLDTYQVKAEISSTKRGAIHRYTFPENTESGFIIDLDYSLQRQTNSEMEIEVISDTEICGHKKTTYWAFDQYINFYAKFSKPFSYTLVTDSITMDNGKRLPVCKALLHFNTSKDEQVLVKVGVSAVDIAGARKNVESEIPGWDFEKVRKDARTAWNEYLSKIDITTSDKEDKAIFYTALYHTGISPNLFTDADGRYLGMDLEVHQGDTLNPIYTVFSLWDTFRALHPLMTIIDPDLNNHFINSLIKKHQEGGIYPMWDLASNYTGTMIGYHAVPVIVDAYMKGYRNFDTKEAYKACLRAAEYDTTGIKCPDLVLPHLMPKAKYYKNAIGYIPCDRENESVAKALEYAYDDWCISIFAEAMSDFESKAKYERFAKAYEFYFDKSIRFMRGLDSKGEWRTPFNPRASTHRSDDYCEGTAWQWTWFVPHDVEGLVNLMGGEDAFVQKLDSLFSADSSLEGETTSSDISGLIGQYAHGNEPSHHVIHLYNYVNHPWRTQELVDSVYRSQYANSIEGLSGNEDCGQMSAWYILNSMGFYQVCPGKPVYSIGRPAFDKAVINLPEGKTFSIVVKNNGKKNKYIESVLLNGKALNIPFFNHQDIANGGTMEIKMTDHPTKWGVLSPALSSKEEE	failed
MGFLDKVEKSIEGAVSGVFARAFRGEVEPVEIAGRLQRELDSEAQILSRDKSLVPNDFVVRLSSRDYERLVPYTKTLNAEIIPTLRDHASERHYVFNGPIHIRYDLDDALPVGKFTVLTGENHAKAVSDRRAPLVLEVDGVRHPLTPPGLTIGRGSDADIRINDPGISRLHARINVWPQGNDIGLSIEDLDSTNGVTVNGVKVTSTELGDGSRIEIGSTRMLVHSPTRI	failed
MTIEPTQSPSSEPEVHSGEDFVHIDDPRPTGDISLSDSIVNVEKDELLDEAAEEEFRGSDSVFSGGDGGGADDDGGECSSEATKVELPEELAKSVVILTCESTADGGSCDVYLVGTAHVSKVILVLRFHLVLSLQRSCLGIELIFW	failed
MKISVITINYNNGEQLEATIQSVVSNVTVLRELLGEKAEYIVIDGGSVDCSVSVLQKYSEYISYWISEKDKGIYHAMNKGISVAQGEYCFFLNSGDTFYEDDTLKKALLFLKEDFVCGNAVLKYAGGINEWSAPEIVNTLFFMQRFSVCHQSLFIRTELLKSHPYNETLMIVADYEQMFYEIAVNHRSYKKIDLTICYYGCDGVSSDHEKADAEKRSVINEFRYLGYIEPDELWNVVSKLKIGTRKYRLLLSLAKCLTSSPKYWVRLEHHHHHH	not failed
GSSGSSGMCGRFAQSQTREDYLALLAEDIERDIPYDPEPIGRYNVAPGTKVLLLSERDEHLHLDPVFWGYAPGWWDKPPLINARVETAATSRMFKPLWQHGRAICFADGWFEWKKEGDKKQPFFIYRADGQPIFMAAIGSTPFERGDEAEGFLIVTAAADQGLVDIHDRRPLVLSPEAAREWMRQEISGKEASEIAASGCVPANQFSWHPVSRAVGNVKNQGAELIQPV	not failed
MRWDVVAWAVLALLLIAAETLAPGAFLLWMGIAAAAVCVLVLAVPGTSVLLQIVAFVVLSFVAIQVYRTWFRGKGRQSDRPLLNRRAEQLIGRSVLLDQAIVDGRGRAKVDDAFWVVSGPDLPAGALVRIVAVDGMTLQVQPNT	failed
MFCTLAGYRWLNSGSLLRRLSQRAVRRLPTAPLCHLHNGATESAASNGALRIVDEKVAYRRYATVFERTVQYPDGRHVTYDILGQPAVQSASVLVFPFDTQSKTCYVIREYCPGPNRVLYGFPAGMVETKHESLEAAARAELSEEAHLRCAQLIDLTAQAAVWERSFEVPNTASDAENCLRGFFADKYSRNVCKMYLALNPEPDGHPGSMDAEELIEQVGAVRVPQLEAWLWSGQMTMPHMLLAMCALTYLRQRGMLT	failed
MTPPIINLPQRLGRSRRLAYGAATAGAWMVYFYLWAPLATLIAWFFGLRSAYTELYLQHNALDPFALGSLPVIALMSAITTVGWAEYNRLRFVNADKRRRPRTVAEPDVDQRLGATEQLGTLLRHSRISSVAMDKFARPVAVRVVRHR	failed
MSLSLWQQCLARLQDELPATEFSMWIRPLQAELSDNTLALYAPNRFVLDWVRDKYLNNINVLLNDFCGMDAPLLRFEVGSKPLVQTISQPAQSHHNPVSVARQQPVRMAPVRPSWDNSPVQAEHTYRSNVNPKHTFDNFVEGKSNQLARAAARQVADNPGGAYNPLFLYGGTGLGKTHLLHAVGNGIIARKPNAKVVYMHSERFVQDMVKALQNNAIEEFKRYYRSVDALLIDDIQFFANKERSQEEFFHTFNALLEGNQQIILTSDRYPKEINGVEDRLKSRFGWGLTVAIEPPELETRVAILMKKADENDIRLPGEVAFFIAKRLRSNVRELEGALNRVIANANFTGRSITIDFVREALRDLLALQEKLVTIDNIQKTVAEYYKIKIADLLSKRRSRSVARPRQMAMALAKELTNHSLPEIGDAFGGRDHTTVLHACRKIEQLREESHDIKEDFSNLIRTLSSLEHHHHHH	not failed
